Results on 3 substances are retold here after patent US20100075326A1.

Where two headings read alike, the source gives them in different places.

Assay [1] addresses LFA-1 I domain L295P, YS2H bait fused to Aga2 with C-terminal FLAG tag (yeast) (UniProt P20701). Nature of the assay: YS2H as in the row 'Myc', but labelled without metal ions with 10 mM EDTA (row 'Myc+ EDTA'); Flag (bait) MFI 40±2.
In assay [2] the target is high affinity (HA) LFA-1 I domain K287C/K294C, YS2H bait fused to Aga2 with C-terminal FLAG tag (yeast) (UniProt P20701). Nature of the assay: YS2H: I domain bait on the yeast surface (Aga2 fusion, Flag tag), secreted scFv prey with Myc tag; flow cytometry with anti-Myc antibody, mean ± standard error of three measurements; Flag (bait) MFI 85±7.
For assay [3], the target named is LFA-1 I domain L295P, YS2H bait fused to Aga2 with C-terminal FLAG tag (yeast) (UniProt P20701). Nature of the assay: YS2H: I domain mutant bait on the yeast surface, secreted scFv AL-57 prey with Myc tag; flow cytometry with anti-Myc antibody, 10 mM MgCl2, mean ± standard error of three measurements; Flag (bait) MFI 40±2.
In assay [4] the target is LFA-1 I domain F265S, YS2H bait fused to Aga2 with C-terminal FLAG tag (yeast) (UniProt P20701). Nature of the assay: YS2H as in the row 'Myc', but labelled without metal ions with 10 mM EDTA (row 'Myc+ EDTA'); Flag (bait) MFI 52±8.
The target is the same in assay [5]. Nature of the assay: predicted from YS2H (flow cytometry of Myc and FLAG tags, Langmuir equation).
The target in assay [6] is LFA-1 I domain L295P, YS2H bait fused to Aga2 with C-terminal FLAG tag (yeast) (UniProt P20701). The assay is described as above.
For assay [7], the target named is high affinity (HA) LFA-1 I domain K287C/K294C, YS2H bait fused to Aga2 with C-terminal FLAG tag (yeast) (UniProt P20701). Described as above.
The target of assay [8] is LFA-1 I domain F265S, YS2H bait fused to Aga2 with C-terminal FLAG tag (yeast) (UniProt P20701). Nature of the assay: YS2H: I domain mutant bait on the yeast surface, secreted scFv AL-57 prey with Myc tag; flow cytometry with anti-Myc antibody, 10 mM MgCl2, mean ± standard error of three measurements; Flag (bait) MFI 52±8. For orientation: In flow cytometry, cells or beads pass a laser one at a time.

For assay [9] the target is unchanged. Nature of the assay: predicted from YS2H (flow cytometry of Myc and FLAG tags, Langmuir equation). The source holds these as a separate data set.
Assay [10] concerns the target wild-type LFA-1 I domain, YS2H bait fused to Aga2 with C-terminal FLAG tag (yeast) (UniProt P20701). Nature of the assay: YS2H: I domain bait on the yeast surface (Aga2 fusion, Flag tag), secreted scFv prey with Myc tag; flow cytometry with anti-Myc antibody, mean ± standard error of three measurements; Flag (bait) MFI 79±1.
In assay [11] the target is LFA-1 I domain L295P, soluble, refolded from E. coli (UniProt P20701). Nature of the assay: SPR (Biacore), I domain injected over scFv AL-57 chip, 10 mM MgCl2. (In general: In SPR one partner is held on a chip, and binding of the other changes the refractive index at the surface.)
Assay [12] has as its target LFA-1 I domain F265S, soluble, refolded from E. coli (UniProt P20701). The description is as above.
Assay [13] deals with high affinity (HA) LFA-1 I domain K287C/K294C, soluble, refolded from E. coli (UniProt P20701). Described as above.
In assay [14] the target is wild-type LFA-1 I domain, YS2H bait fused to Aga2 with C-terminal FLAG tag (yeast) (UniProt P20701). Nature of the assay: YS2H: I domain bait on the yeast surface (Aga2 fusion, Flag tag), secreted scFv prey with Myc tag; flow cytometry, mean ± standard error of three measurements; paragraph 71 says goat polyclonal anti-murine antibody was the primary antibody for detecting TS1/22; Flag (bait) MFI 40±0.3.

Assay [15] has as its target high affinity (HA) LFA-1 I domain K287C/K294C, YS2H bait fused to Aga2 with C-terminal FLAG tag (yeast) (UniProt P20701). Nature of the assay: YS2H: I domain bait on the yeast surface (Aga2 fusion, Flag tag), secreted scFv prey with Myc tag; flow cytometry, mean ± standard error of three measurements; paragraph 71 says goat polyclonal anti-murine antibody was the primary antibody for detecting TS1/22; Flag (bait) MFI 44±2.

The target of assay [16] is the wild-type and HA I domain. Nature of the assay: predicted from YS2H (flow cytometry of Myc and FLAG tags, Langmuir equation).

As usually defined, the Kd is the constant that tells how readily two partners part at equilibrium.

Regarding “scFv AL-57, secreted YS2H prey with C-terminal Myc tag”, the MFI (anti-Myc, with EDTA) in [1] came out at 10; in assay [4], 15. Moreover, the MFI (anti-Myc) in assay [2] was determined as 80; in assay [3], 13; in assay [8] it was 32; in [10] it was 12. The Kd in assay [5] is 237 nM; in [6], 440 nM; in assay [7] it was 151 nM; in assay [9], 148 to 237 nM.

As for “scFv AL-57, soluble, refolded from E. coli”, the Kd in assay [11] came out at 243 nM; in assay [12] it was 15.7 nM; in assay [13] it was 32.6 nM.

As to “scFv TS1/22, secreted YS2H prey with C-terminal Myc tag”, the MFI (row 'Myc') came out at 38 in [14] and 40 in assay [15]. Moreover, the Kd in assay [16] is 148 to 237 nM.
